Drawing on US20100008937A1, this text covers Cy3+ K562 cells/Total K562 cells, % (in vivo Cy3-siRNA delivery) for two substances.

In test [1] the target is human HA (high-affinity) LFA-1 on stably transfected K562 cells (human) (UniProt P20701). As to the kind of experiment: cell-based or functional assay.
Test [2] deals with human WT LFA-1 on stably transfected K562 cells (human) (UniProt P20701). As to the kind of experiment: cell-based or functional assay.
Chain of human WT LFA-1 on stably transfected K562 cells (human) (P20701 26-1170, chain 1 of 2): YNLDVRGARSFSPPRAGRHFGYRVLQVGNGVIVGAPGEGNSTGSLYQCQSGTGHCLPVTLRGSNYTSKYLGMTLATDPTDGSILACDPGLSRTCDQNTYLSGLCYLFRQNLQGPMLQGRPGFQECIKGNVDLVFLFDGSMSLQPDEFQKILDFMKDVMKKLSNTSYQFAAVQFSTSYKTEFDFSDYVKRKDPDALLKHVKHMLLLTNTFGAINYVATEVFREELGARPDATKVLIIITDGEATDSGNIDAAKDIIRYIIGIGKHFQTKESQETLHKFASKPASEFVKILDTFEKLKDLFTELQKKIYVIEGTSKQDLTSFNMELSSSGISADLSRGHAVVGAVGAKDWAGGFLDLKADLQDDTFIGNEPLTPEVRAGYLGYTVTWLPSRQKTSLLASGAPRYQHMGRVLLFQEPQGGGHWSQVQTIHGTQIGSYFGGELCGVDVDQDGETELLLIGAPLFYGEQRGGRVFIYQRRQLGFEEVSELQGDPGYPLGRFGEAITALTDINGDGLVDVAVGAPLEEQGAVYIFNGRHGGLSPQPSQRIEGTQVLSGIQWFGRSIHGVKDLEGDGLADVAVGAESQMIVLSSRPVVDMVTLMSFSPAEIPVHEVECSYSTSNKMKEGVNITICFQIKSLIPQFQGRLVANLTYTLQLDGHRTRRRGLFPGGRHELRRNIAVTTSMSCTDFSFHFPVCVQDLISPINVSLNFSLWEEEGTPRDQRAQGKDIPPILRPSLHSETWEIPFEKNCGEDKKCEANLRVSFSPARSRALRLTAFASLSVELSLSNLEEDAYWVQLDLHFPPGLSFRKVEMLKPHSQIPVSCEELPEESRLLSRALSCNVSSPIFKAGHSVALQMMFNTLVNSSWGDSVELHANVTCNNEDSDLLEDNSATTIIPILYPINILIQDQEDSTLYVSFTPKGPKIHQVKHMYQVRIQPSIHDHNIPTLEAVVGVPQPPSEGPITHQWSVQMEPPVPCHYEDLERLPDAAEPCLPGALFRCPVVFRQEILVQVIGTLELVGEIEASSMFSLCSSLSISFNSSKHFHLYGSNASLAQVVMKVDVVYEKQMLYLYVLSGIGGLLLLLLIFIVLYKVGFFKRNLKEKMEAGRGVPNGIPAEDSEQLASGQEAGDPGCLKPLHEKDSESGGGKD
Chain of human WT LFA-1 on stably transfected K562 cells (human) (P05107 23-769, chain 2 of 2, further chain): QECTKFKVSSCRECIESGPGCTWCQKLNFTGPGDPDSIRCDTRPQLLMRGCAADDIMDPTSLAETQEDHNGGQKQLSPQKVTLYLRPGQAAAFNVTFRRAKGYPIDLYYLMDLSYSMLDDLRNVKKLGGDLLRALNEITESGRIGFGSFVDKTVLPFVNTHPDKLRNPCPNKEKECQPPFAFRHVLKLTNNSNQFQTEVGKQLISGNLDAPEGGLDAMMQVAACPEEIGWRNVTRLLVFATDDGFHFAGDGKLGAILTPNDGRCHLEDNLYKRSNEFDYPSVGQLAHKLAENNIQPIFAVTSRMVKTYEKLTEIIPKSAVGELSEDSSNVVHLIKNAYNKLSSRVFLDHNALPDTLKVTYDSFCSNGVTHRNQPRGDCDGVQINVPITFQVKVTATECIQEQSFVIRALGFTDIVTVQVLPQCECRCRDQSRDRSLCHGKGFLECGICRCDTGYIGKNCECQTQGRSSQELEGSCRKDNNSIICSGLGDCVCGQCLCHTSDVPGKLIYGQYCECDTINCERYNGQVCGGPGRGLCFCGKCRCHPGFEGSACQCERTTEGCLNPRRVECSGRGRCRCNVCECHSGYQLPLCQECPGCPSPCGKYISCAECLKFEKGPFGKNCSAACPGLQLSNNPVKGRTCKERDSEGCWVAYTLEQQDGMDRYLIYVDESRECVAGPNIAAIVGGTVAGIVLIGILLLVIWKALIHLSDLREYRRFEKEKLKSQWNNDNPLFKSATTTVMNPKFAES

Chain of human HA (high-affinity) LFA-1 on stably transfected K562 cells (human) (P20701 26-1170 K312C/K319C limits assumed, chain 1 of 2): as the sequence (P20701 26-1170, chain 1 of 2) above, with K287C, K294C counted along it
Chain of human HA (high-affinity) LFA-1 on stably transfected K562 cells (human) (P05107 23-769 limits assumed, chain 2 of 2, further chain): as the sequence (P05107 23-769, chain 2 of 2, further chain) above

With “AL-57-protamine fusion protein (scFv AL-57 fused to human protamine residues 8-29, His6 tag) (from UniProt P04553 8-29)”, the Cy3+ K562 cells/Total K562 cells, % (in vivo Cy3-siRNA delivery) worked out at 88.1% in test [1] and 23.3% in test [2].
In the case of “TS1/22-protamine fusion protein (scFv TS1/22 fused to human protamine residues 8-29, His6 tag) (from UniProt P04553 8-29)”, the Cy3+ K562 cells/Total K562 cells, % (in vivo Cy3-siRNA delivery) in test [1] stood at 87.4%; in test [2], 88.5%.
